Experiment [1] addresses T1, H-Ras(G12V)-GTP (Homo sapiens (Human), UniProt P01112 1-166).
T1 construct: also called H-Ras(G12V)-GppNHp; active H-Ras(G12V); not shown: avitag and His tag at the 5' (N-terminal) end
The experiment can be described thus: radioactive in vitro pull-down on Ras-GTP beads (FIG. 6b).

In experiment [2] the target is T2, Rap1B(G12V)-GTP (Pan troglodytes (Chimpanzee), UniProt A5A6J7 1-166, biotinylated (pDW363 vector, BirA)).
T2 construct: also called Rap1B-GTP
T2 chain: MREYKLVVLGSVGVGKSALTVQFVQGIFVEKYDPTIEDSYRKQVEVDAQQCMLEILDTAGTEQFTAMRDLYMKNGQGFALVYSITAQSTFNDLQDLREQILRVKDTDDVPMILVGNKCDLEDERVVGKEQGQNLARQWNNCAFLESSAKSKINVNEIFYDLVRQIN
As to the kind of experiment: radioactive in vitro pull-down of [35S]Met-labelled RasIn2 on bead-immobilised target [c].

Experiment [3] deals with T3, Arf1-GTP (UniProt P84077 18-179, biotinylated (pDW363 vector, BirA)).
T3 construct: range 18-179
The description is as above.

Experiment [4] concerns the target T4, K-Ras(G12V, Y32R) (human, UniProt P01116-2 1-185, limits assumed, biotinylated (pDW363 vector, BirA)).
T4 construct: Made by site-directed mutagenesis of pDW363 K-Ras(G12V); also called Y32R Switch I mutant; Y32R mutation
As to the kind of experiment: radioactive in vitro pull-down of [35S]Met-labelled RasIn2 on bead-immobilised target [d].

The target of experiment [5] is T1, H-Ras(G12V)-GTP. The experiment can be described thus: SPR, KD of RasIn2 against KD of the parent clone RasIn1.
The target of experiment [6] is T1, H-Ras(G12V)-GTP. The experiment can be described thus: SPR, Biacore T100, biotinylated H-Ras(G12V)-GppNHp on streptavidin chip, MBP-intrabody fusion injected, 25 C.
Experiment [7] deals with T1, H-Ras(G12V)-GTP. The experiment can be described thus: ELISA, biotin-labeled H-Ras(G12V)-GppNHp on streptavidin plate, anti-FLAG detection, OD450.
In experiment [8] the target is T5, K-Ras(G12V)-GTP (human, UniProt P79800 1-166 (Meleagris gallopavo entry), biotinylated in vivo on the avitag (BirA)).
T5 construct: Active state: immobilised on neutravidin/streptavidin beads and exchanged with GTP or GTPγS; Same protein as m18, other nucleotide; also called K-Ras(G12V)-GTPγS; K-Ras(GTPγS); not shown: avitag and His tag at the 5' (N-terminal) end
The experiment can be described thus: radioactive pull-down of RasIn1 on Ras-GTP beads; competitor Raf-RBD in molar excess.

Experiment [9] concerns the target T4, K-Ras(G12V, Y32R). The experiment can be described thus: radioactive in vitro pull-down of [35S]Met-labelled RasIn1 on bead-immobilised target [b].
For experiment [10], the target named is T5, K-Ras(G12V)-GTP. As to the kind of experiment: radioactive in vitro pull-down of [35S]-labelled RasIn1 and point mutants on immobilised K-Ras-GTP [a].
The target of experiment [11] is T1, H-Ras(G12V)-GTP. The experiment can be described thus: SPR (Biacore T100), H-Ras(G12V) on a streptavidin chip exchanged with GppNHp, maltose binding protein-intrabody fusion injected [e].

These results are taken from patent US20180282397A1 (UNIVERSITY OF SOUTHERN CALIFORNIA, published 2018).

B1: RasIn2 (designed binder)
chain: MLEVKEASPTSIQISWSIVFGKHDRYYRITYGETGGNSPVQEFTVPGSKSAATISGLKPGVDYTITVYAVTFRWPKRRLVRPISINYRT
notes: also called Clone 3; radiolabeled RasIn2
Regarding B1, the “% binding (pull-down)” value in experiment [1] was over 70%. Besides, the binding result in experiment [2], in experiment [3] and in [4] was “no binding” in each case.

B2: RasIn2 maltose binding protein fusion (designed binder, not shown: large carriers)
chain: MLEVKEASPTSIQISWSIVFGKHDRYYRITYGETGGNSPVQEFTVPGSKSAATISGLKPGVDYTITVYAVTFRWPKRRLVRPISINYRT
For B2, in experiment [5], the “fold increase in affinity versus RasIn1” value was about 20 fold. Binding in experiment [6] was characterised by a dissociation constant (Kd) of 120 nM.

B3: FLAG-tagged RasIn2 (designed binder, not shown: large carriers)
chain: MLEVKEASPTSIQISWSIVFGKHDRYYRITYGETGGNSPVQEFTVPGSKSAATISGLKPGVDYTITVYAVTFRWPKRRLVRPISINYRT
notes: also called RasIn2 protein
In the case of B3, in [7], the “fold ELISA signal versus Raf-RBD” value is about 10 fold.

B4: RasIn1 (designed binder)
chain: MLEVKEASPTSIQISWGPVFSAYSRYYRITYGETGGNSPVQEFTVPGSKSAATISGLKPGVDYTITVYAVTFRWPMPRLVRPISINYRT
notes: also called radiolabeled RasIn1; parental RasIn1 clone
As for B4, the “fold decrease of binding with Raf-RBD” value in experiment [8] came out at 12 fold. Moreover, the binding result in [9] is given as “no binding”.

B5: RasIn1 R72A (designed binder)
chain: MLEVKEASPTSIQISWGPVFSAYSRYYRITYGETGGNSPVQEFTVPGSKSAATISGLKPGVDYTITVYAVTFAWPMPRLVRPISINYRT
modifications: [35S]Met radiolabel from in vitro translation; letters unchanged
notes: FG loop mutant
Regarding B5, the binding result in experiment [10] is reported as “no binding”.

B6: Clone 1 (designed binder)
chain: MLEVKEASPTSIQISWGRVFSLDSRYYRITYGETGGNSPVQEFTVPGSKSAATISGLKPGVDYTITVYAVTFRWPNPRLVRPISINYRT
notes: also called Clone 1 of maturation pool 5
Turning to B6, the “% binding (pull-down)” value in experiment [1] was over 70%.

B7: RasIn1 S24R (designed binder)
chain: MLEVKEASPTSIQISWGPVFSAYRRYYRITYGETGGNSPVQEFTVPGSKSAATISGLKPGVDYTITVYAVTFRWPMPRLVRPISINYRT
modifications: [35S]Met radiolabel from in vitro translation; letters unchanged
notes: Radiolabeled point mutant of RasIn1, BC loop
Take B7: the binding result in experiment [10] is “no binding”.

B8: Clone 4 (designed binder)
chain: MLEVKEASPTSIQISWGSVFRADSRYYRITYGETGGNSPVQEFTVPGSKSAATISGLKPGVDYTITVYAVTFRWPRPRLLWPISINYRT
notes: also called clone 4 of maturation pool 5
Regarding B8, in [1], the “% binding (pull-down)” value was over 70%.

B9: RasIn1 R77A (designed binder)
chain: MLEVKEASPTSIQISWGPVFSAYSRYYRITYGETGGNSPVQEFTVPGSKSAATISGLKPGVDYTITVYAVTFRWPMPALVRPISINYRT
modifications: [35S]Met radiolabel from in vitro translation; letters unchanged
notes: FG loop mutant
On to B9, for which, in experiment [10], the binding result is recorded as “no binding”.

B10: Clone 2 (designed binder)
chain: MLEVKEASPTSIQISWEYVFGRHDRYYRITYGETGGNSPVQEFTVPGSKSAATISGLKPGVDYTITVYAVTFRWPKRRLLWPISINYRT
notes: also called Clone 2 of maturation pool 5
Take B10: the “% binding (pull-down)” value in experiment [1] is over 70%.

B11: RasIn1 maltose binding protein fusion (designed binder, not shown: large carriers)
chain: MLEVKEASPTSIQISWGPVFSAYSRYYRITYGETGGNSPVQEFTVPGSKSAATISGLKPGVDYTITVYAVTFRWPMPRLVRPISINYRT
With B11, the Kd in experiment [6] came to 2100 nM; in [11], 2000 nM.
